In US20030087319A1 (published 2003) one finds binding result and decrease in caspase activity (DEVD-AFC cleavage) in HeLa cells treated with TNF-a and cycloheximide data, which are given here for 2 molecules.

The target of assay [1] is T1, recombinant active caspase-3 (PharMingen) (UniProt P42574 29-277, limits assumed).
T1 sequence (looked up): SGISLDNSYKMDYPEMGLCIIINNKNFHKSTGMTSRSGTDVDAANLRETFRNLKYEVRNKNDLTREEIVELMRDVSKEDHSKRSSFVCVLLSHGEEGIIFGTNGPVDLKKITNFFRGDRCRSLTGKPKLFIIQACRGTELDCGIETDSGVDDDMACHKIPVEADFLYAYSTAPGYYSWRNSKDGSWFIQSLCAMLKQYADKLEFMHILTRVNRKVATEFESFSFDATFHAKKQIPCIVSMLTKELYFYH
The assay can be described thus: in vitro binding, 35S-labeled protein with recombinant active caspase, immunoprecipitation with caspase-specific antibodies, autoradiography. The procedure: Binding between livin and caspases was tested by incubating ³⁵[S]-methionine-labeled livin with recombinant active caspase-3 and -7, immunoprecipitating with caspase specific antibodies, resolving on SDS-PAGE and visualising by autoradiography. Both caspase-3 and -7 interacted with livin, but not with the deletion mutant DC89 used as a negative control. Survivin, which was previously shown to interact with these caspases using whole cell lysates (Tamm et al., ibid), also bound to both caspases in this in vitro assay.
In vitro binding reactions were performed by combining recombinant active caspase-3 or -7 (PharMingen, San Diego, Calif.) with ³⁵[S]-methionine-labeled survivin or livin (wild-type and the three deletion mutants described herein), prepared using the TNT T7 reticulocyte lysate system (Promega Corp., Madison, Wis.). Samples were incubated with polyclonal antibodies against either caspase-3 or -7 (PharMingen, San Diego, Calif.) in 0.5 ml NETN buffer [20 mM Tris (pH 8.0), 100 mM NaCl, 1 mM EDTA, and 0.2% NP-40] for 1.5 hrs at 4° C. followed by protein G sepharose (Amersham Pharmacia Biotech, Piscataway N.J.) for 30 min. All samples were then washed three times in NETN buffer, boiled in Laemmli buffer, and resolved by 4-20% SDS-PAGE. […]

The target in assay [2] is DEVD-cleaving caspases (caspase-3, -6, -7, -8, and -10). Kind of assay: cell-based or functional assay.

B1: livin deletion mutant DC89 (other)
chain: MGPKDSAKCLHRGPQPSHWAAGDGPTQERCGPRSLGSPVLGLDTCRAWDHVDGQILGQLRPLTEEEEEEGAGATLSRGPAFPGMGS
modifications: 35[S]-methionine-labeled
notes: also called DC86; NH2-terminal fragment (amino acids 1-86); not shown: myc-His tag from the vector pcDNA3.1/myc-His
Turning to B1, the binding result in assay [1] is “no binding”.

B2: livin expressed from pcDNA3.1/V5/His-TOPO-livin in transfected HeLa cells, Q96CA5 1-298 (protein, not shown: small tags and cut ends)
chain: MGPKDSAKCLHRGPQPSHWAAGDGPTQERCGPRSLGSPVLGLDTCRAWDHVDGQILGQLRPLTEEEEEEGAGATLSRGPAFPGMGSEELRLASFYDWPLTAEVPPELLAAAGFFHTGHQDKVRCFFCYGGLQSWKRGDDPWTEHAKWFPSCQFLLRSKGRDFVHSVQETHSQLLGSWDPWEEPEDAAPVAPSVPASGYPELPTPRREVQSESAQEPGARDVEAQLRRLQEERTCKVCLDRAVSIVFVPCGHLVCAECAPGLQLCPICRAPVRSRVRTFLS
Molecule B2 displayed a decrease in caspase activity (DEVD-AFC cleavage) in HeLa cells treated with TNF-a and cycloheximide in assay [2] of 15 to 20%.
